Measurements as given in the supplement of paper PMC6755084.

B1: minF1; the commonest letter at each place (parent)
chain: GAGACCGCAACTGAAAAGTTGTTATCAGAAATGGATGGGTTGAATTTCTGCACGTAGAAGCAAAAGGC

Variants of: B1
Assay: fraction ligated after 30 min (ligated reads / total reads); higher = more ligase activity
Settings: with F1*subA RNA substrate (template-directed ligation), 42 °C
Method in brief: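 Using barcoded primers for reverse transcription and a MiSeq for sequencing, gel-separated ligated and unligated RNAs of minimized ligase ribozyme variants were read, with core-base filtering at quality ≥30. Fraction ligated per variant was defined as ligated reads over total reads.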

Variant	fraction ligated
GAGACCGCAACTGAAAAGTTGTTATCAGACATGTATGGGTTGAATTTCTGCACGTAGAAGCAAAAGGC [A30C G34T]	0.00409
GAGACCGCAACTGAAAAGTTGTTATCAGACATGCATGGGTTGAATTTCTGCACGTAGAAGCAAAAGGC [A30C G34C]	0.00405
GAGACCGCAACTGAAAAGTTGTTATCAGAGATGGATGGGTTGAGTTTCTGCACGTAGAAGCAAAAGGC [A30G A44G]	0.833
GAGACCGCAACTGAAAAGTTGTTATCAGAGATGGATGGGTTGACTTTCTGCACGTAGAAGCAAAAGGC [A30G A44C]	0.735
GAGACCGCAACTGAAAAGTTGTTATCAGAGATGGATGGGTTGATTTTCTGCACGTAGAAGCAAAAGGC [A30G A44T]	0.809
GAGACCGCAACTGAAAAGTTGTTATCAGACATGGATGGGTTGACTTTCTGCACGTAGAAGCAAAAGGC [A30C A44C]	0.565
GAGACCGCAACTGAAAAGTTGTTATCAGACATGGATGGGTTGATTTTCTGCACGTAGAAGCAAAAGGC [A30C A44T]	0.703
GAGACCGCAACTGAAAAGTTGTTATCAGACATGGATGGGTTGAGTTTCTGCACGTAGAAGCAAAAGGC [A30C A44G]	0.686
GAGACCGCAACTGAAAAGTTGTTATCAGACATGGATGGGTTGGATTTCTGCACGTAGAAGCAAAAGGC [A30C A43G]	0.0454
GAGACCGCAACTGAAAAGTTGTTATCAGACATGGATGGGTTGTATTTCTGCACGTAGAAGCAAAAGGC [A30C A43T]	0.0731
GAGACCGCAACTGAAAAGTTGTTATCAGACATGGATGGGTTGCATTTCTGCACGTAGAAGCAAAAGGC [A30C A43C]	0.0543
GAGACCGCAACTGAAAAGTTGTTATCAGACATTGATGGGTTGAATTTCTGCACGTAGAAGCAAAAGGC [A30C G33T]	0.435
GAGACCGCAACTGAAAAGTTGTTATCAGACATAGATGGGTTGAATTTCTGCACGTAGAAGCAAAAGGC [A30C G33A]	0.773
GAGACCGCAACTGAAAAGTTGTTATCAGACATCGATGGGTTGAATTTCTGCACGTAGAAGCAAAAGGC [A30C G33C]	0.684
GAGACCGCAACTGAAAAGTTGTTATCAGACATGGACGGGTTGAATTTCTGCACGTAGAAGCAAAAGGC [A30C T36C]	0.0174
GAGACCGCAACTGAAAAGTTGTTATCAGACATGGAGGGGTTGAATTTCTGCACGTAGAAGCAAAAGGC [A30C T36G]	0.0467
GAGACCGCAACTGAAAAGTTGTTATCAGACATGGAAGGGTTGAATTTCTGCACGTAGAAGCAAAAGGC [A30C T36A]	0.0266
GAGACCGCAACTGAAAAGTTGTTATCAGTAAAGGATGGGTTGAATTTCTGCACGTAGAAGCAAAAGGC [A29T T32A]	0.0493
GAGACCGCAACTGAAAAGTTGTTATCAGTAACGGATGGGTTGAATTTCTGCACGTAGAAGCAAAAGGC [A29T T32C]	0.0232
GAGACCGCAACTGAAAAGTTGTTATCAGTAAGGGATGGGTTGAATTTCTGCACGTAGAAGCAAAAGGC [A29T T32G]	0.0161

Variant	fraction ligated
GAGACCGCAACTGAAAAGTTGTTATCAGAGATGCATGGGTTGAATTTCTGCACGTAGAAGCAAAAGGC [A30G G34C]	0.00227
GAGACCGCAACTGAAAAGTTGTTATCAGAGATGAATGGGTTGAATTTCTGCACGTAGAAGCAAAAGGC [A30G G34A]	0.0439
GAGACCGCAACTGAAAAGTTGTTATCAGAGATGTATGGGTTGAATTTCTGCACGTAGAAGCAAAAGGC [A30G G34T]	0.00265
GAGACCGCAACTGAAAAGTTGTTATCAGAGATAGATGGGTTGAATTTCTGCACGTAGAAGCAAAAGGC [A30G G33A]	0.821
GAGACCGCAACTGAAAAGTTGTTATCAGAGATTGATGGGTTGAATTTCTGCACGTAGAAGCAAAAGGC [A30G G33T]	0.672
GAGACCGCAACTGAAAAGTTGTTATCAGAGATCGATGGGTTGAATTTCTGCACGTAGAAGCAAAAGGC [A30G G33C]	0.805
GAGACCGCAACTGAAAAGTTGTTATCAGTAATGGGTGGGTTGAATTTCTGCACGTAGAAGCAAAAGGC [A29T A35G]	0.153
GAGACCGCAACTGAAAAGTTGTTATCAGTAATGGTTGGGTTGAATTTCTGCACGTAGAAGCAAAAGGC [A29T A35T]	0.0234
GAGACCGCAACTGAAAAGTTGTTATCAGAGTTGGATGGGTTGAATTTCTGCACGTAGAAGCAAAAGGC [A30G A31T]	0.836
GAGACCGCAACTGAAAAGTTGTTATCAGAGGTGGATGGGTTGAATTTCTGCACGTAGAAGCAAAAGGC [A30G A31G]	0.84
GAGACCGCAACTGAAAAGTTGTTATCAGAGCTGGATGGGTTGAATTTCTGCACGTAGAAGCAAAAGGC [A30G A31C]	0.777
GAGACCGCAACTGAAAAGTTGTTATCAGACCTGGATGGGTTGAATTTCTGCACGTAGAAGCAAAAGGC [A30C A31C]	0.714
GAGACCGCAACTGAAAAGTTGTTATCAGACTTGGATGGGTTGAATTTCTGCACGTAGAAGCAAAAGGC [A30C A31T]	0.771
GAGACCGCAACTGAAAAGTTGTTATCAGACGTGGATGGGTTGAATTTCTGCACGTAGAAGCAAAAGGC [A30C A31G]	0.806
GAGACCGCAACTGAAAAGTTGTTATCAGAGATGGATGGGTTGCATTTCTGCACGTAGAAGCAAAAGGC [A30G A43C]	0.179
GAGACCGCAACTGAAAAGTTGTTATCAGAGATGGATGGGTTGTATTTCTGCACGTAGAAGCAAAAGGC [A30G A43T]	0.188
GAGACCGCAACTGAAAAGTTGTTATCAGAGATGGATGGGTTGGATTTCTGCACGTAGAAGCAAAAGGC [A30G A43G]	0.14
GAGACCGCAACTGAAAAGTTGTTATCAGTAATGGATGGGTTGATTTTCTGCACGTAGAAGCAAAAGGC [A29T A44T]	0.741
GAGACCGCAACTGAAAAGTTGTTATCAGTAATGGATGGGTTGAGTTTCTGCACGTAGAAGCAAAAGGC [A29T A44G]	0.734
GAGACCGCAACTGAAAAGTTGTTATCAGTAATGGATGGGTTGACTTTCTGCACGTAGAAGCAAAAGGC [A29T A44C]	0.59
